Assays:
[1] = biological target: T1, Ctr9 (full length, C-terminal hexahistidine tag) (S. cerevisiae, UniProt P89105 1-1077); test: co-purification after coexpression (Ni-NTA, cation exchange, SEC); subunits coexpressed in E. coli from three vectors, cells colysed; Ni-NTA (hexahistidine tag on Ctr9), HiTrap SP cation exchange, Superose 6 size exclusion; SDS-PAGE, subunits confirmed by mass spectrometry; details: partners not purified
T1 construct: Ctr9, S. cerevisiae, full length, amplified from genomic DNA, in pET24b; source: E. coli BL21 CodonPlus(DE3)RIL, coexpressed with the other subunits; in lysate and purified as part of Paf1C; not shown: His6, C-terminal, kept
T1 sequence (looked up): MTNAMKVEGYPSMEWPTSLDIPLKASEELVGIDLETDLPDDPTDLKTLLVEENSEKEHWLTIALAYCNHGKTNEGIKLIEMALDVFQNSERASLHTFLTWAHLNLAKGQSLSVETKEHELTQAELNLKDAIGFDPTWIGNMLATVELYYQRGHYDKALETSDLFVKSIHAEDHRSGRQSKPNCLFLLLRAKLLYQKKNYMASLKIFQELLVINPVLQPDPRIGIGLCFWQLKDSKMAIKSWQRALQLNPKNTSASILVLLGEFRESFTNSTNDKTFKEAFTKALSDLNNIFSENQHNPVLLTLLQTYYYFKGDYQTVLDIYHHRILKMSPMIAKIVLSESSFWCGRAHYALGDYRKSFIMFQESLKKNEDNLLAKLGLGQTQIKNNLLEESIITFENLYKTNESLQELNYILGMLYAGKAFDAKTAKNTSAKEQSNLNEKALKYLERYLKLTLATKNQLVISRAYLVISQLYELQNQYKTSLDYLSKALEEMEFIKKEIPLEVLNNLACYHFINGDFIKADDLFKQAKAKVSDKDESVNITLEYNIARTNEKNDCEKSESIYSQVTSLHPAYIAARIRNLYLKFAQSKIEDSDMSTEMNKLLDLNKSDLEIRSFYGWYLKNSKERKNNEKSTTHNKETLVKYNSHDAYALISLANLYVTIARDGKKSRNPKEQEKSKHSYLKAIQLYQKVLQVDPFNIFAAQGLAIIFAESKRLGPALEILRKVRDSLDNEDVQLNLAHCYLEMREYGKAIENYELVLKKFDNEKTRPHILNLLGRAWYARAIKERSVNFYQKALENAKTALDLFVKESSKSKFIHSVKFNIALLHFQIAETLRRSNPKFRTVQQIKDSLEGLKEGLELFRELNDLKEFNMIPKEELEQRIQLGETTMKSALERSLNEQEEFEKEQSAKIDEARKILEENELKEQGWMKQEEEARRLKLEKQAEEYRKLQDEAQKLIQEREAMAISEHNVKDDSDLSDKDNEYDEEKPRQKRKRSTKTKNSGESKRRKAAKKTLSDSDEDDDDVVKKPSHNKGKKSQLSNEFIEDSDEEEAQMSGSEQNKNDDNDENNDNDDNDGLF

[2] = biological target: T2, Leo1 (S. cerevisiae, UniProt P38439 1-464); test: cross-linking; Pol II-Paf1C-TFIIS EC after SEC, 425 μg/ml, 0.5 mM BS3, 30 min, 30 °C; trypsin, Orbitrap Fusion LC-MS/MS, pLink, FDR 1%; details: both partners purified
T2 construct: Leo1, S. cerevisiae, open reading frame chemically synthesized (codon-optimised), in pCDFDuet-1; source: E. coli BL21 CodonPlus(DE3)RIL, coexpressed with the other subunits; in lysate and purified as part of Paf1C
T2 sequence (looked up): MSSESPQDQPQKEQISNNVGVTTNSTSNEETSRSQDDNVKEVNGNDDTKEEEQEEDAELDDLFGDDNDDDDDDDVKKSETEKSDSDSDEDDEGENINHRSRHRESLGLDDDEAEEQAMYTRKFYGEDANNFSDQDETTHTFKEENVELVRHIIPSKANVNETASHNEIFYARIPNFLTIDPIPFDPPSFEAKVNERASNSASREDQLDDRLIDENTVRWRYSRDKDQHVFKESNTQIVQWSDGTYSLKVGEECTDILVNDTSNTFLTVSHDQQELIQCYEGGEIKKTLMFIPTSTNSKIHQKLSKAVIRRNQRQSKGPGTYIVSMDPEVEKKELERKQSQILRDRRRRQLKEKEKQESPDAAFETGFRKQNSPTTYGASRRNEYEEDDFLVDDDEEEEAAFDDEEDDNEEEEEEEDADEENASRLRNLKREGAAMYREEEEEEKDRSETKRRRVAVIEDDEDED

[3] = biological target: T3, Ctr9-ΔC913 (S. cerevisiae, UniProt P89105 1-913); test: as above; details: both partners purified
T3 construct: Ctr9, S. cerevisiae, variant lacking 164 amino acids at its C terminus (Ctr9-ΔC913); also called Ctr9 (in the Pol II-Paf1C-TFIIS EC); source: E. coli BL21 CodonPlus(DE3)RIL, coexpressed with the other subunits; in lysate and purified as part of Paf1C-Ctr9-ΔC913
T3 sequence (looked up): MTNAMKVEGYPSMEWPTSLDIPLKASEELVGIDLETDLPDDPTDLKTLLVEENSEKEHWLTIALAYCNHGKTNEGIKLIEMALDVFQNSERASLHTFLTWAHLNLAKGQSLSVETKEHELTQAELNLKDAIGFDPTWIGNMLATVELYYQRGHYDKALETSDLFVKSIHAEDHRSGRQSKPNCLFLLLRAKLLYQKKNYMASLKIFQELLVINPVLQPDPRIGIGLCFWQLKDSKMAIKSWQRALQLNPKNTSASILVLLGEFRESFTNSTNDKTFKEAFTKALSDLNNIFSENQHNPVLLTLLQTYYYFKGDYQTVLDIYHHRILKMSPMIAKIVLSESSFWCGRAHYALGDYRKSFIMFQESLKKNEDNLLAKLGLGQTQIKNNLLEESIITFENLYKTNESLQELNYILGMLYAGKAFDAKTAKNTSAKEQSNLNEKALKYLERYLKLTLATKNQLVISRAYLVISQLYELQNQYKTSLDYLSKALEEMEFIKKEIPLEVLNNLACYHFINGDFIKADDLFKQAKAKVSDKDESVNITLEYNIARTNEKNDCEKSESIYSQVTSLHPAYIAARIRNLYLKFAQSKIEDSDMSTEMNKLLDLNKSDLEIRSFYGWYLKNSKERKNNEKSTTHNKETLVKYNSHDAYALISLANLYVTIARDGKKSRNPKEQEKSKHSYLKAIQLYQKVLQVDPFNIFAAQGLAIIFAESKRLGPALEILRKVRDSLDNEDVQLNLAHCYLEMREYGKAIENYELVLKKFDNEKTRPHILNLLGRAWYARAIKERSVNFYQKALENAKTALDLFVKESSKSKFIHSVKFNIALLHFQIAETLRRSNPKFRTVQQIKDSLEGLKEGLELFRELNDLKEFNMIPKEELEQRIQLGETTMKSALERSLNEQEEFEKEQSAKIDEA

[4] = biological target: T4, Rtf1 (S. cerevisiae, UniProt P53064 1-558); test: as above; details: both partners purified
T4 construct: Rtf1, S. cerevisiae, full length, amplified from genomic DNA; source: E. coli BL21 CodonPlus(DE3)RIL, coexpressed with Cdc73; in lysate and purified as part of Paf1C
T4 sequence (P53064 whole entry): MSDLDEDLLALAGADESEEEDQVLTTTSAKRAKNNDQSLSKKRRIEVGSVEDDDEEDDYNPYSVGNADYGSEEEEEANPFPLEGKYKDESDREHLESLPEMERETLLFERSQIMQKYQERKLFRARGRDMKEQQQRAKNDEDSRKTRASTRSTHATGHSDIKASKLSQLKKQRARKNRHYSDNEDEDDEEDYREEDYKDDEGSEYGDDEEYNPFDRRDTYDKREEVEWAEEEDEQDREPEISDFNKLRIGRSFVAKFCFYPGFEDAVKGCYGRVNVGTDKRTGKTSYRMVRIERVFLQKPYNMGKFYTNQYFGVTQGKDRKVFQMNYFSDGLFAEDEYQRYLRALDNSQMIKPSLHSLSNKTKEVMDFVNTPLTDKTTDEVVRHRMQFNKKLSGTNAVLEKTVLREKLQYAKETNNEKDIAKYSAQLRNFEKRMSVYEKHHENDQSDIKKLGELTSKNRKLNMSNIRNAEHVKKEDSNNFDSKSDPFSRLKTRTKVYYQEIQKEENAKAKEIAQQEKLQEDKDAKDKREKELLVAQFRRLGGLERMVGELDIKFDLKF

[5] = biological target: T5, Rpb2 (Pol II subunit) (yeast, UniProt P08518 1-1224); test: as above; details: both partners purified
T5 construct: Rpb2, subunit of yeast Pol II; source: part of purified Pol II
T5 sequence (P08518 whole entry): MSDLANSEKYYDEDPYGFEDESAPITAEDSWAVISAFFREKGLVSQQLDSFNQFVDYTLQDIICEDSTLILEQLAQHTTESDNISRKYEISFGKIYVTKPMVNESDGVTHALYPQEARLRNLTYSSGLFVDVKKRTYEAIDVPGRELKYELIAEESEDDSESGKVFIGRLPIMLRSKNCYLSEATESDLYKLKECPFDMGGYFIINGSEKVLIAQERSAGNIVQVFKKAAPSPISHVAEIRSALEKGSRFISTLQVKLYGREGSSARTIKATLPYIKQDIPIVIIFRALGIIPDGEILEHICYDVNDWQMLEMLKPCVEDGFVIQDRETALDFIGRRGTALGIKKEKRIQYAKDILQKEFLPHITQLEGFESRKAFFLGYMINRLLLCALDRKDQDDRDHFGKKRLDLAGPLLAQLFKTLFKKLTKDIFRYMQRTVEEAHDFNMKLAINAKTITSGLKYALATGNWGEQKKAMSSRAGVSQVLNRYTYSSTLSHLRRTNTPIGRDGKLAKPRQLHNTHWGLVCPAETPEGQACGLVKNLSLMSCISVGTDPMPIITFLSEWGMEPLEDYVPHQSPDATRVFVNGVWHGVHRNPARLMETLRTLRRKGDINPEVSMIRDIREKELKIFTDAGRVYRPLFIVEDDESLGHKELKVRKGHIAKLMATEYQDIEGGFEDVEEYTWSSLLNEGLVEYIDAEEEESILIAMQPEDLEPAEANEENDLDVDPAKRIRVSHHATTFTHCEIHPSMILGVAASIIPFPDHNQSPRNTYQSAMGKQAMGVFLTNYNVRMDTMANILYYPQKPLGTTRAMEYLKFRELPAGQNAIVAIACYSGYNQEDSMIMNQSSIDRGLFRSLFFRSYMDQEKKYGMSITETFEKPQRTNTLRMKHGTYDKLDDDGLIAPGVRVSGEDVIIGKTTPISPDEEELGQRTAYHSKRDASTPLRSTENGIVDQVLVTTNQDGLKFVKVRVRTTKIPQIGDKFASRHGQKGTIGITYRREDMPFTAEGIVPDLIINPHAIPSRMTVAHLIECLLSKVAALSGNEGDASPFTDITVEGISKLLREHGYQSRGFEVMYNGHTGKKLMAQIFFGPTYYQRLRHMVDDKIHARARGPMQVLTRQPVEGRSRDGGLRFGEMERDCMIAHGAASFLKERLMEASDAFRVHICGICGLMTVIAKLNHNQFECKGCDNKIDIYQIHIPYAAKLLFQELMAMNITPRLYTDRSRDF

Measured: binding result

B1: Paf1 (natural protein, S. cerevisiae, UniProt P38351 1-445, looked up)
chain: MSKKQEYIAPIKYQNSLPVPQLPPKLLVYPESPETNADSSQLINSLYIKTNVTNLIQQDEDLGMPVDLMKFPGLLNKLDSKLLYGFDNVKLDKDDRILLRDPRIDRLTKTDISKVTFLRRTEYVSNTIAAHDNTSLKRKRRLDDGDSDDENLDVNHIISRVEGTFNKTDKWQHPVKKGVKMVKKWDLLPDTASMDQVYFILKFMGSASLDTKEKKSLNTGIFRPVELEEDEWISMYATDHKDSAILENELEKGMDEMDDDSHEGKIYKFKRIRDYDMKQVAEKPMTELAIRLNDKDGIAYYKPLRSKIELRRRRVNDIIKPLVKEHDIDQLNVTLRNPSTKEANIRDKLRMKFDPINFATVDEEDDEDEEQPEDVKKESEGDSKTEGSEQEGENEKDEEIKQEKENEQDEENKQDENRAADTPETSDAVHTEQKPEEEKETLQEE
notes: Paf1, S. cerevisiae, open reading frame chemically synthesized (codon-optimised), in pCDFDuet-1; also called polymerase-associated factor 1; source: E. coli BL21 CodonPlus(DE3)RIL, coexpressed with the other subunits; in lysate and purified as part of Paf1C
binds: all assays above

Reference: paper PMC5467213, “Architecture of the RNA polymerase II-Paf1C-TFIIS transcription elongation complex” (Nature Communications, 2017)
